1 substance from patent US12186374B2 (Sanofi-Aventis Deutschland GmbH, priority 2014, dated 2025) can be followed below.

In this data set the test system is patients with T2DM. Nature of the data set: ALT increase reported on AE form (Example 3). The settings on record: on-treatment period.

For “Gly(A21)-Arg(B31)-Arg(B32)-human insulin [Insulin Glargine]”, the “Patients with AE of ALT increase” value (Example 3) is 2 patients. Besides, under “PT, Safety population”, the “% of patients with events reported on the AE form for ALT increase: Alanine aminotransferase increased” value was determined as 0.5%, the “Number of patients with events reported on the AE form for ALT increase: Alanine aminotransferase increased” value came to 2 and the “Number of patients with events reported on the AE form for ALT increase: Hepatic enzyme increased” value is on record as 0. Also, where the note is “Safety population”, the “% of patients with events reported on the AE form for ALT increase: Any” value came out at 0.5% and the “Number of patients with events reported on the AE form for ALT increase: Any” value came out at 2.
